Measured values taken from the nanobody polyreactivity screen of Harvey et al. (2022).

Experiment: yeast display, Sf9 membrane polyspecificity reagent, FACS + sequencing; frameworks hold sequencing errors
Procedure, shortened: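 Galactose-induced (36–48 hours) yeast carrying a synthetic nanobody display library were exposed to 10% biotinylated, detergent-solubilized Sf9 membrane reagent at 4 °C for 1 hour. FACS followed streptavidin microbead enrichment, using low and high (top ~1%) gates for expression (anti-HA) and reagent binding (streptavidin). Colony PCR, MiSeq 2 × 250 sequencing and CDR-length filtering followed. Labels for polyreactivity reflect the gate of origin.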
For “QVQLVESGGGLVQAGGSLRLSCAASGRTLRIYAMGWYRPAPGNERELVAAITGSGGSTDYADSVKGRFTISRDNAKNTVYLQMNILKPEDTAVYYCNAGKTIDYRDGVGYDHWGQGTQVTVSS”, the “polyreactivity (PSR sort gate)” value was “low polyreactivity”. In the case of “QVQLVESGGGLVQAGGSLRLSCAASVRIYGSNVMGWYRQAPGKERELVASISSGGTTYYADSVKGRFTISRDNAKNTVYLQMNSLKPEDTAVYYCAKQWTRIYQYRWYPGTRTGYDYWGQGTQVTVSS”, the “polyreactivity (PSR sort gate)” value is reported as “high polyreactivity”. In the case of “QVQLVEAGGRLVQAAGSLRLSLAASAFNTTAMGWYRQAPGKDRELVAAITSDGDSTYYADSVKGRFTISRDNAQNTDYFQKNCVKPVDTAVYYCAADAVPTSVVYWGFYGMYWGQGTQVTVSS”, the “polyreactivity (PSR sort gate)” value is reported as “low polyreactivity”. In the case of “QVHLVESGGGLVQAGGSLRLSCAASGRTFVRYAMGWYRQAPGKERELVARITARGTSTYYADSVKGRFTISRDNAKNTVYLQMNRLKPEDTAVYYCNKVRTFRDKSRYDYWGQGTQVTVSS”, the “polyreactivity (PSR sort gate)” value is reported as “low polyreactivity”. In the case of “QVQLQESGGGLVQAGGSLRLSCPSSGNISIKLQMGWYRQAPGKERELVATINLGAITYYADSVKGLITISRDNAKNTVYLQVNSLKPEDTAVYYCNAQSRTWRKLGYWGQGTQVTVSS”, the “polyreactivity (PSR sort gate)” value is reported as “low polyreactivity”. In the case of “QVQLVESGGALVQAGGSLRLSCSASGSIFHGYIMGWYRQAPGKERELVAAITTGGSTNYADSVKGRFTISRDNAKNTVYLQMNSLKPEDTAVYDCATDPYVDPSRDYLELGGYWGQGTQVTVSS”, the “polyreactivity (PSR sort gate)” value is reported as “low polyreactivity”. With “QVQLVESGGGLVQAGGILRLSCAASGFIFYHYAMGWYRQAPGKERELVASITSGGRTYYADSVKGRFTISRDNAKNTVSLQMNRLKPEDTAVYYCAAAYYYYSSPRFTTGMDYWGQGTQVTVSS” the “polyreactivity (PSR sort gate)” value was “high polyreactivity”. In the case of “QVQLVESGGGLVQAGGSLRLSCAASYAMGGYRQAPGKERELVAGISRSGDITYYADSVKGRFTISRDNAKNTVYLQMNSLKPEDTAVYYCAARQGRYSGRQLFYWGQGTQVTVSS”, the “polyreactivity (PSR sort gate)” value is reported as “high polyreactivity”. With “QVQLVESGGGLVQAGGSLRLSCAASGSTFRRYAMGWSRQAPGKVRELVAAISRTGRTNYADSVKGRFTISRDNAKYTVYLQMNSLKPEDTAFDYCAAKSSTKQRKYYWGQGTQVTVSS” the “polyreactivity (PSR sort gate)” value was “high polyreactivity”. For “QFQLEESGGGLVQAGGSIRLSCAASGFILDSYGMGWYRQAPGTERELVAAISQSDVSTYYADSVNGRYTISRDNAKNTVYLHMNSLKPEDTAVYYCAADRGGLRWFWQVLFDYWGQGTQVTVSS”, the “polyreactivity (PSR sort gate)” value was “low polyreactivity”. In the case of “QVQLQESGGGLVQAGGSLRLSCAASGYISIGRRMGWYRQAPGKERELVAGINGGGSTNYADSVKGRSTISRDNAKNTVYLQMNSLKPEDTAVYYCAAYVYDYDWYKYWGQGTQVTVSS”, the “polyreactivity (PSR sort gate)” value is reported as “high polyreactivity”. In the case of “QVQLVESGGGLVQAGGSLRLSCAASGSTLVRYAMGWYRQAPGKERELVASISYSGGSTHYADSVKGRFTISRDNAKNTVYLQMNSLKPEDTAVYYCAARRYYSWGGHYYWGQGTQVTVSS”, the “polyreactivity (PSR sort gate)” value is reported as “high polyreactivity”. For “QVQLVESGGGLVQAGGSLRLSCAASGRTFSFYDMGWYRQAPGKERELVAAINSGSSTYYADSVKGRFTISRDNANNTVYLQMNSLKPEDTEVYYCAAEPYFWWQNEYWGQGTQVTVSS”, the “polyreactivity (PSR sort gate)” value was “high polyreactivity”. With “QVQLVESGGGLVQAGGSLRLSCAASGFTFWKYAMGWYRQAPGKERELVATITSSGDNTYYADSVKGRFTISRDNAKNNVYLQMNSLKPEDTAVYYCAADNGYHYNFDYWGQGTQVTVSS” the “polyreactivity (PSR sort gate)” value was “low polyreactivity”. For “QVQLVESGAGLVQAGGILRLSCAASGRIFQYNAMGWYRQAPGKEREWVAAIRRGGGSTYYADSVKGRFTISRDNAKNTVYLQMNSLKPEDTAVYYCAARRKRVSFYPEYDYWGQGTQVTVSS”, the “polyreactivity (PSR sort gate)” value was “low polyreactivity”. For “QVQLVESGGGLVQAGGSLRLSCAASGRIFDGNTMGWYRQAPGKERELVAAITYSGGRTSYADSVKGRFTISRDNAKNTVYLQMNSLKPEDTAVYYCNARVVTGSWYEGYYWGQGTQVTVSS”, the “polyreactivity (PSR sort gate)” value was “low polyreactivity”. With “QVQLVESGGGLVQAGGSLRLSCAASGSTFPYNAMGWYRQAPGKERELVAAITWRAGRTYYADSVKGRFTISRDNAKITVYLHMNSLKAEDTAVYYCAKSYQRGVNHYEYWGQGTQVTVSS” the “polyreactivity (PSR sort gate)” value was “high polyreactivity”. In the case of “QVQLVESGGGLVQAGGSLSLSCAASGRTFRVYAMGSYRQSPRKERELVAAITNGGSTNYADSVKGRFTISRDNAKNTVYLQMNSLKPEDTAVYYCARVHRSYVAAQGVYVGNYYWGQGTQVTVSS”, the “polyreactivity (PSR sort gate)” value is reported as “high polyreactivity”. With “QVQLVESGGGLVQAGGSLRLSCAASGSTFDRYAMGWYRQAPGNERELVAAISSSGGTTYYADSVKGRFTITRDNAKTTVYVQMNSLKPEDTAVYYCAAVRYYESRGGYDYWGQGPQVTVSS” the “polyreactivity (PSR sort gate)” value was “low polyreactivity”. For “QVQLVESGGGLVQAGGSLRLSCAASGRIFRGYAMGWYRQAPGKERELVAAISRGGNTDYADSVKGRFTISRDNAKNTVYLQMNSLKPEDTAVYYCAVGYVSYRKFYLYNSWGQGTQVTVSS”, the “polyreactivity (PSR sort gate)” value was “high polyreactivity”. With “EVQLVESGAGLVQAVGSLRLSCYASGFIFGYNAMGWYRQAHGKERELVAAISSGGGNTYYADSVKGRFTISRDNAKNTVYLQMNSLKPEDTAVYYCAAPDPRRPRRGDSWGQGTQVTVSS” the “polyreactivity (PSR sort gate)” value was “low polyreactivity”. With “QVQLVESGGGLVQAGGSLRLSCAASGFILDTYGMGWYRQAPGKERELVAAISQSDVSTYYADSVKGRFTISRDNAKNTVYLQMNSLKPEDTAVYYCNAGAGKRGYDYWGQGTQVTVSS” the “polyreactivity (PSR sort gate)” value was “low polyreactivity”. With “QVQLVESGGGLVQAGGSLRLSCAASGSTFLGYAMGWSRQAPGKERELVAAINLSTSGTYYADSVKGRFTISRDNAKNTVYLQMNSLKPEDTAVYYCAAAYSNINYYYQYYYWGQGTQVTVSS” the “polyreactivity (PSR sort gate)” value was “low polyreactivity”. With “QVQLVESGGGLVQAGASLRLSCAASGIILHYYAMGGYRQAPGKERELVAAISARGGRTYYADSVKGRFTISRDNAKNTVYLQMNSLKPEDTAVYYCARYLRRSSPSPGYGYWGQGTQVTVSS” the “polyreactivity (PSR sort gate)” value was “high polyreactivity”. With “KVQLVESGGGLVQAGGSLRLSCAASGRTFESYAMGWYRQAPGKERELVAAITWSGGDTYYADSVKGRFTISRDNAKNTVYLQMNSLKPEDTAVYYCAKEQGLYSVSPYDYWGLGTQVTVSS” the “polyreactivity (PSR sort gate)” value was “low polyreactivity”. For “QVQLVESGRGLVQAGGSLRLSFAASGITFGPNEMGWYRQAPGKERELVAAISKSGGTTYYADSVKGRFTISRDNAKNTDYLQMNSLKPEDTAVYYCAARCYPYYASFRYDYWGQGTQVTVSS”, the “polyreactivity (PSR sort gate)” value was “high polyreactivity”. With “QVQLVESGGGLVQAGGSLRISCAASGSTFDYNAMGWDRQAPGKERELVAVISQSGTRTYYADSVKGRFTISRDNAKNTVYLQMNSLKPEDTAVYYCAARSPYSYRYDYWGQGTQVTVSS” the “polyreactivity (PSR sort gate)” value was “high polyreactivity”. In the case of “QVQLVESGGGLVQAGGSLRLSCAASGNTFHTYTMGWYRQAPGKERELVAVITRSGGRTYYADSVKGRFTISRDNAKNTVYLQMNSLKPEDTAVYYCAVLGAGQTWLDYWGQGTQVTVSS”, the “polyreactivity (PSR sort gate)” value is reported as “high polyreactivity”. With “QVQLVESGGGLEQAGGSLRLSCAASGLIFRGYVMGWYRPAPGKERELVAAISRRGVNTYYADSVKGRFTISRDNSKNTVYLQMNSLKPEDTAVYYCAAETHVGWPAKFDYWGQGTQVTVSS” the “polyreactivity (PSR sort gate)” value was “high polyreactivity”. For “QVHLVESGGGLVQAGGSLRLSCAASGRISHYNAMGWNRQAPGKERELVAAISSRGGSTYYADSVKGRFTISRDNAKNTVYLQMNSLKPEDTAVYFCAVRYWHWGKKITYDYWGQGTQVTVSS”, the “polyreactivity (PSR sort gate)” value was “high polyreactivity”.
